Assay results as given in patent WO2019080889A1 (dated 2019).

What was measured:
[1] = target: T1, human CSF-1R protein (huCSF-1R), full length, expressed on CHO-S cells (human, UniProt P07333 20-972); assay: flow cytometry on CHO cells highly expressing CSF-1R
T1 construct: whole, on cells; Also used here as the target of the monocyte proliferation assays (native receptor on human monocytes); also called CSF-1R/CHO cells; CHO cells highly expressing CSF-1R

[2] = target: T2, cynomolgus monkey CSF-1R-His (cynomolgus monkey, UniProt A0A2K5WG90 20-512); assay: ELISA on cynomolgus CSF-1R-His
T2 construct: Bought protein; also called cynoCSF-1R-His; cynomolgus CSF-1R protein; not shown: His tag

B1: humanized anti-CSF-1R antibody huC11 (antibody, human IgG1, kappa, V domains shown)
VH: EVQLVQSGAEVKKPGASVKVSCKASGYTFSNYYMNWVRQAPGQGLEWMGEMNPNTGDSSYNQKFKGRVTLTVDKSTSTAYMELSSLRSEDTAVYYCARRSPWWFFDVWGQGTMVTVSS
VL: DIVMTQSPDSLAVSLGERATINCKSSQSLLSSGNQKTSLTWYQQKPGQPPKLLIYWASTRESGVPDRFSGSGSGTDFTLTISSLQAEDVAVYYCQNDYTYPFTFGQGTKLEIKR
notes: Full-length chains; also called huC11 (VH-b heavy chain and VL-b light chain)
- binding result [1]: binds

B2: humanized anti-CSF-1R antibody huC19 (antibody, human IgG1, kappa, V domains shown)
VH: QVQLVQSGAEVKKPGASVKVSCKASAITFTDYYMNWVKQAPGQGLEWIGDIYPNTGGTTYNQKFKGRVTLTVDTSISTAYMELSRLRSEDTAVYYCAREKITMEYYYAMDYWGQGTLVTVSS
VL: DIQLTQSPSSLSASVGDRVTITCRASESVSSHDIHLIHWYQQKPGKAPKLLIYAASSLESGVPSRFSGSGSGTDFTLTISSLQPEDFATYFCQQSIEDPPTFGGGTKVEIKR
notes: Full-length chains; also called huC19 (VH-c heavy chain and VL-a light chain)
- binding result [1]: binds

B3: anti-CSF-1R chimeric antibody C11C (antibody, V domains shown)
VH: EVQLQQSGPELVKPGASVKISCKASGYTFSNYYMNWVNQRHGERLEWIGEMNPNNGDSSYNQKFKGKATLTVDKSSSTAYMELRSLTSEDSAVYYCARRSPWWFFDVWGPGTTVIVSS
VL: DIVMTQSPSSLTVTAGEKVTMSCKSSQSLLNSGNQKNSLTWYQQKPGQPPKLLIYWASTRESGVPDRFTGSGSGTDFTLTISSVQTEDLAVYYCQNDYTYPFTFGTGTKLEIK
- binding result [1]: binds

B4: anti-CSF-1R chimeric antibody C19C (antibody, V domains shown)
VH: EVQLQQSGPELVKPGASVKISCTASAITFTDYYMNWVKQSPGKGLEWIGDIYPNNGGTTYNQKFKGKATLTVDKSSTTAYMELRSLTSEDSAVYYCAREKITMEYYYAMDYWGQGTSVTVSS
VL: DIVLTQSPASLAVSLGQRATISCRASESVSSHDIHLIHWYQQKPGQSPKLLIYAASSLESGVPARFSGSGSATDFTLNIHPVEEEDAATYFCQQSIEDPPTFGGGTKLEIK
- binding result [1]: binds

B5: anti-CSF-1R chimeric antibody C27C (antibody, V domains shown)
VH: EVQLQQSGAELVRPGALVKLSCKASGFNIKDYYMHWVKQRPEQGLEWIGRFDPENGDTIYDWKFQDKAIITSDTSSNTAYLHLSSLTSEDTAVYYCARSGDYMFDYWGQGTLVTVSA
VL: ETTVTQSPASLSMAIGEKVTIRCITSTGVDDDFNWYQQRPGEPPKLLISEGNTLRPGVPSRFSSSGYGTDFVFTIENMLSEDVADYFCLQSDHLPFTFGSGTKLEIK
- binding result [2]: no binding
